Source: paper PMC10673124

Target: Elastase (UniProt P00772)
Sequence of UniProt P00772 (P00772 27-266): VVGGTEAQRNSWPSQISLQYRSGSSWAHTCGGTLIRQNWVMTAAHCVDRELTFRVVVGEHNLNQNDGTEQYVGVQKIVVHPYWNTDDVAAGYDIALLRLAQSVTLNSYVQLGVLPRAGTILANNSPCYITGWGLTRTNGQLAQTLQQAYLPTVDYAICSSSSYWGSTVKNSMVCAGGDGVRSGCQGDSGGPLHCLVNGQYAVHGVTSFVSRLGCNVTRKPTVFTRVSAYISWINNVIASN

B1: S1 (…) (peptide)
peptide: VGVPGVGVPGVGVPGV
  elastase inhibitory activity (%), peptide at 10-20 mM, substrate N-Succinyle-Ala-Ala-Ala-pNA: 76.3%
